Results from IntAct's records for PubMed 31515488.

B1: Maspardin (Homo sapiens), Q9NZD8 (parent)
chain: MGEIKVSPDYNWFRGTVPLKKIIVDDDDSKIWSLYDAGPRSIRCPLIFLPPVSGTADVFFRQILALTGWGYRVIALQYPVYWDHLEFCDGFRKLLDHLQLDKVHLFGASLGGFLAQKFAEYTHKSPRVHSLILCNSFSDTSIFNQTWTANSFWLMPAFMLKKIVLGNFSSGPVDPMMADAIDFMVDRLESLGQSELASRLTLNCQNSYVEPHKIRDIPVTIMDVFDQSALSTEAKEEMYKLYPNARRAHLKTGGNFPYLCRSAEVNLYVQIHLLQFHGTKYAAIDPSMVSAEELEVQKGSLGISQEEQ
partner: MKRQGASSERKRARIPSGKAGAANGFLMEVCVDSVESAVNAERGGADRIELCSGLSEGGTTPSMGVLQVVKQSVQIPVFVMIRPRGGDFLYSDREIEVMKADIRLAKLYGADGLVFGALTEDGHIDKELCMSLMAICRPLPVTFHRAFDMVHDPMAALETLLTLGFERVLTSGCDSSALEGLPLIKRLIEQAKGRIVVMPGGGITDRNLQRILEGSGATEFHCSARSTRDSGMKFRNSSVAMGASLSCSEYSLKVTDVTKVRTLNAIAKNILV
B2: Protein unc-45 homolog A (Homo sapiens), Q9H3U1 (parent)
chain: MTVSGPGTPEPRPATPGASSVEQLRKEGNELFKCGDYGGALAAYTQALGLDATPQDQAVLHRNRAACHLKLEDYDKAETEASKAIEKDGGDVKALYRRSQALEKLGRLDQAVLDLQRCVSLEPKNKVFQEALRNIGGQIQEKVRYMSSTDAKVEQMFQILLDPEEKGTEKKQKASQNLVVLAREDAGAEKIFRSNGVQLLQRLLDMGETDLMLAALRTLVGICSEHQSRTVATLSILGTRRVVSILGVESQAVSLAACHLLQVMFDALKEGVKKGFRGKEGAIIVDPARELKVLISNLLDLLTEVGVSGQGRDNALTLLIKAVPRKSLKDPNNSLTLWVIDQGLKKILEVGGSLQDPPGELAVTANSRMSASILLSKLFDDLKCDAERENFHRLCENYIKSWFEGQGLAGKLRAIQTVSCLLQGPCDAGNRALELSGVMESVIALCASEQEEEQLVAVEALIHAAGKAKRASFITANGVSLLKDLYKCSEKDSIRIRALVGLCKLGSAGGTDFSMKQFAEGSTLKLAKQCRKWLCNDQIDAGTRRWAVEGLAYLTFDADVKEEFVEDAAALKALFQLSRLEERSVLFAVASALVNCTNSYDYEEPDPKMVELAKYAKQHVPEQHPKDKPSFVRARVKKLLAAGVVSAMVCMVKTESPVLTSSCRELLSRVFLALVEEVEDRGTVVAQGGGRALIPLALEGTDVGQTKAAQALAKLTITSNPEMTFPGERIYEVVRPLVSLLHLNCSGLQNFEALMALTNLAGISERLRQKILKEKAVPMIEGYMFEEHEMIRRAATECMCNLAMSKEVQDLFEAQGNDRLKLLVLYSGEDDELLQRAAAGGLAMLTSMRPTLCSRIPQVTTHWLEILQALLLSSNQELQHRGAVVVLNMVEASREIASTLMESEMMEILSVLAKGDHSPVTRAAAACLDKAVEYGLIQPNQDGE
partner: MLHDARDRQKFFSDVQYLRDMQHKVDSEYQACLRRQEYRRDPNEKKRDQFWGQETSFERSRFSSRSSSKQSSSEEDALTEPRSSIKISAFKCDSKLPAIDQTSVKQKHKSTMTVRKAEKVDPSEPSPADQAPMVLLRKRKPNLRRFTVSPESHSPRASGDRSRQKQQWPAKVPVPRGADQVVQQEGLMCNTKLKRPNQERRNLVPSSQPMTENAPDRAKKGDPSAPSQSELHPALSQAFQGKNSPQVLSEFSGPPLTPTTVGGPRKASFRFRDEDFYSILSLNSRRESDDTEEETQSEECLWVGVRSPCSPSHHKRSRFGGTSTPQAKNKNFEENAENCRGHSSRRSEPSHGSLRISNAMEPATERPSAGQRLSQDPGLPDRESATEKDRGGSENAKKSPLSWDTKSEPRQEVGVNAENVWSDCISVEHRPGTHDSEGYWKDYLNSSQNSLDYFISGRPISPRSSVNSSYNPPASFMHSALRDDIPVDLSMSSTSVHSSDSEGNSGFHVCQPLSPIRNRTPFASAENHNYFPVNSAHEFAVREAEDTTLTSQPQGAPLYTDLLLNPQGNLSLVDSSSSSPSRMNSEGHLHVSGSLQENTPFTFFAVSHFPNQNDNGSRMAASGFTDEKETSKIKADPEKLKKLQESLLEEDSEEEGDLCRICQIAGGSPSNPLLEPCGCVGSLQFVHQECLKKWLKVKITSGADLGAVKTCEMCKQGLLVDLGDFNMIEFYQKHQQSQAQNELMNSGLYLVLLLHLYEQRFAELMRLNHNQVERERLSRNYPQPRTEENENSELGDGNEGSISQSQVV
B3: Hyaluronan mediated motility receptor (Homo sapiens), O75330 (parent)
chain: MSFPKAPLKRFNDPSGCAPSPGAYDVKTLEVLKGPVSFQKSQRFKQQKESKQNLNVDKDTTLPASARKVKSSESKESQKNDKDLKILEKEIRVLLQERGAQDRRIQDLETELEKMEARLNAALREKTSLSANNATLEKQLIELTRTNELLKSKFSENGNQKNLRILSLELMKLRNKRETKMRGMMAKQEGMEMKLQVTQRSLEESQGKIAQLEGKLVSIEKEKIDEKSETEKLLEYIEEISCASDQVEKYKLDIAQLEENLKEKNDEILSLKQSLEENIVILSKQVEDLNVKCQLLEKEKEDHVNRNREHNENLNAEMQNLKQKFILEQQEREKLQQKELQIDSLLQQEKELSSSLHQKLCSFQEEMVKEKNLFEEELKQTLDELDKLQQKEEQAERLVKQLEEEAKSRAEELKLLEEKLKGKEAELEKSSAAHTQATLLLQEKYDSMVQSLEDVTAQFESYKALTASEIEDLKLENSSLQEKAAKAGKNAEDVQHQILATESSNQEYVRMLLDLQTKSALKETEIKEITVSFLQKITDLQNQLKQQEEDFRKQLEDEEGRKAEKENTTAELTEEINKWRLLYEELYNKTKPFQLQLDAFEVEKQALLNEHGAAQEQLNKIRDSYAKLLGHQNLKQKIKHVVKLKDENSQLKSEVSKLRCQLAKKKQSETKLQEELNKVLGIKHFDPSKAFHHESKENFALKTPLKEGNTNCYRAPMECQESWK
B4: Elongin-A2 (Homo sapiens), Q8IYF1 (parent)
chain: MAAGSTTLHAVEKLQVRLATKTEPKKLEKYLQKLSALPMTADILAETGIRKTVKRLRKHQHVGDFARDLAARWKKLVLVDRNTRPGPQDPEESASRQRFGEALQDQEKAWGFPENATAPRSPSHSPEHRRTARRTPPGQQRPHPRSHSREPRAERKCPRIAPADSGRYRASPTRTAPLRMPEGPEPAAPGKQPGRGHTHAAQGGPLLCPGCQGQPQGKAVVSHSKGHKSSRQEKRPLCAQGDWHSPTLIREKSCGACLREETPRMPSWASARDRQPSDFKTDKEGGQAGSGQRVPALEEAPDSHQKRPQHSHSNKKRPSLDGRDPGNGTHGLSPEEKEQLSNDRETQEGKPPTAHLDRTSVSSLSEVEEVDMAEEFEQPTLSCEKYLTYDQLRKQKKKTGKSATTALGDKQRKANESKGTRESWDSAKKLPPVQESQSERLQAAGADSAGPKTVPSHVFSELWDLSEAWMQANYDPLSDSDSMTSQAKPEALSSPKFREEAAFPGRRVNAKMPVYSGSRPACQLQVPTLRQQCAQVLRNNPDALSDVGEVPYWVLEPVLEGWRPDQLYRRKKDNHALVRETDELRRNHCFQDFKEEKPQENKTWREQYLRLPDAPEQRLRVMTTNIRSARGNNPNGREAKMICFKSVAKTPYDTSRRQEKSAGDADPENGEIKPASKPAGSSHTPSSQSSSGGGRDSSSSILRWLPEKRANPCLSSSNEHAAPAAKTRKQAAKKVAPLMAKAIRDYKRRFSRR
partner: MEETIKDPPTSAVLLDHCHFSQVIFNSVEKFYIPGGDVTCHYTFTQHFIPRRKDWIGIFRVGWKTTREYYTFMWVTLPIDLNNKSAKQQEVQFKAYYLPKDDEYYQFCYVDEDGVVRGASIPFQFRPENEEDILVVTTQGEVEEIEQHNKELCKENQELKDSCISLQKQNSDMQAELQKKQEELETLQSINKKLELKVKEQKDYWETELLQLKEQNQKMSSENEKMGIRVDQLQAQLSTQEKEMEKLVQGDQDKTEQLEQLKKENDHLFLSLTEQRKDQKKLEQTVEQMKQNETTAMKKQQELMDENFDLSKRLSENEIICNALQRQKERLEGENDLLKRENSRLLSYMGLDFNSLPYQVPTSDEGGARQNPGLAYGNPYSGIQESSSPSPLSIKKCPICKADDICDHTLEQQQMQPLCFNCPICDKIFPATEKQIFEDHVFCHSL

Variants of: B1
Details: with cutc_human CUTC

Row | Variant | effect of a mutation on the interaction
1 | H272D | disrupting interaction strength

Variants of: B2
Details: with marha_human MARCHF10, Q8NA82

Row | Variant | effect of a mutation on the interaction
2 | T796M | with no effect

Variants of: B3
Details: with morn4_human MORN4, Q8NDC4
Sequence of morn4_human MORN4, Q8NDC4 (Q8NDC4 whole entry): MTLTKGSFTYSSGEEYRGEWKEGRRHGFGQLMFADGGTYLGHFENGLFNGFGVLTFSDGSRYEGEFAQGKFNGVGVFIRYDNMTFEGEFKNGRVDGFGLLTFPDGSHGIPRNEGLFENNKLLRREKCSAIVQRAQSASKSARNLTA

Row | Variant | effect of a mutation on the interaction
3 | S468G | with no effect
4 | V368A | with no effect

Variants of: B4
Details: with caco2_human CALCOCO2, Q13137

Row | Variant | effect of a mutation on the interaction
5 | T6S | with no effect
6 | C254F | with no effect
